Reference: US20030229006A1, “Amphiphilic oligomers” (priority 1993, published 2003)

Tests used:
[1] = pH 1.3
Pepsin (Gastric) = conditions: pH 1.3
Pancreatin = conditions: pH 7.5
Chymotrypsin = conditions: pH 6
albino mice = experiment: Blood glucose after oral glucose challenge in fasted mice (Example IV); type: in vivo
Method: Comparative studies using bovine insulin were conducted on polymer-insulin conjugates and on native insulin to determine their relative stability and activity in animal models. In the animal studies, the efficacy of the polymer-insulin in lowering the blood level was compared to that of native insulin. Female and male albino mice averaging 25 g in weight were fasted overnight and used in groups of five for each treatment conducted in several phases over a period of two days. […] Conjugate 1) Group 3, 100 μg/kg, orally); or Conjugate 1 (Group 4, 100 μg/kg, subcutaneously) at time 0. […] Animals were fasted overnight before treatment and for the duration of the study. All test materials were prepared in phosphate buffered saline, pH 7.4. […] At the scheduled sample time blood was collected from the tail vein and immediately analyzed for glucose content using a One Touch Digital Glucose Meter (Life Scan).

[2] = Closed loop assay, serum insulin by ELISA; type: in vivo, Sprague-Dawley rats; conditions: 10 and 30 milligrams of insulin per kilogram
Method: FIG. 3 is a graph of ELISA assay results for native insulin in the NRS pool of various Sprague-Dawley rats, showing insulin concentration as a function of time, prior to and after dosing with insulin, at respective doses of 10 milligrams of insulin per kilogram of body weight, and at 30 milligrams of insulin per kilogram of body weight. Two rats were dosed at 10 milligrams insulin per kilogram of body weight (Rats C and I) and two rats were dosed at 30 milligrams insulin per kilogram of body weight (Rats K and L).
FIG. 4 is a graph of ELISA assay results for insulin in the NRS pool of various Sprague-Dawley rats, showing insulin concentration as a function of time, prior to and after dosing with insulin, at respective doses of 10 milligrams of insulin per kilogram of body weight, and at 30 milligrams of insulin per kilogram of body weight, wherein the insulin is administered as a conjugate, insulin-hexyl-PEG7-OMe.

pancreatomized dogs = experiment: Blood glucose after oral microemulsion insulin formulation; type: in vivo; conditions: 1.0 mg/kg orally, emulsion formulation (native Zinc insulin or Hex-insulin mixture)
Method: (§1) FIG. 6 is a graph of insulin and blood glucose levels as a function of time, after dosing of canine subjects with a microemulsion insulin formulation representative of the present invention. The respective curves shown in the graph include native Zinc insulin; glucose ( ), hex-insulin; glucose (▪); native Zinc insulin; insulin (Δ); and hex-insulin; insulin (Δ).
(§2) Glucose data were normalized to the baseline glucose levels (0 minutes). Dogs were dosed orally with one of two emulsion formulations (native Zinc insulin or Hex-insulin mixture). The dose was adjusted to 1.0 mg/kg. Samples were collected at 30 minute intervals. The data were corrected for Hex-insulin reactivity in the BMI ELISA and Pharmacia RIA tests.

[3] = Serum insulin after oral microemulsion insulin formulation; type: in vivo, dogs; conditions: 1.0 mg/kg orally
Method: as §1, §2

Substance	Stability, Acid [1] [h]	Stability, Pepsin (Gastric) 1.5 units/mL (Pepsin (Gastric)) [min]	Stability, Pancreatin 6 units/mL (Pancreatin) [min]	Stability, Chymotrypsin (Chymotrypsin) [min]	Duration of hypoglycemic effect (albino mice; 100 μg/kg subcutaneously) [h]	Blood glucose levels (albino mice; 100 μg/kg subcutaneously, 30 minute time point, control = Group 5, untreated)	Blood glucose levels lowered to a maximum of (albino mice; 1.5 mg/kg orally by gavage)	Time of maximum response after treatment (albino mice; 1.5 mg/kg orally by gavage) [min]	Glucose levels after four hours (albino mice; Group 2, 1.5 mg/kg orally)	Insulin concentration over the timecourse [2]	Glucose return to baseline by (pancreatomized dogs) [min]	Time of maximal glucose depression (pancreatomized dogs) [min]	Time of peak insulin immunoreactivity in the serum after dosing ([3]; emulsion formulation (native Zinc insulin or Hex-insulin mixture)) [min]	Serum insulin return to baseline ([3]; emulsion formulation, in all cases) [min]
Insulin (Na): native (bovine) insulin, sodium form, comparator in stability studies	153	9	77	13	–	–	–	–	–	–	–	–	–	–
native insulin: unconjugated insulin comparator: bovine insulin in Example IV, native Zinc insulin emulsion in Example XIX	–	–	–	–	3.5	approximately 30 % of control	60 % of control	30	remained above control	flat throughout the timecourse	360 to 480	9 to 180	≤ 30	120 to 240
